Reference: the nanobody polyreactivity screen of Harvey et al. (2022)

Assay: yeast display, Sf9 membrane polyspecificity reagent, FACS + sequencing; frameworks hold sequencing errors
Method in brief: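 Galactose-induced (36–48 hours) yeast carrying a synthetic nanobody display library were exposed to 10% biotinylated, detergent-solubilized Sf9 membrane reagent at 4 °C for 1 hour. FACS followed streptavidin microbead enrichment, using low and high (top ~1%) gates for expression (anti-HA) and reagent binding (streptavidin). Colony PCR, MiSeq 2 × 250 sequencing and CDR-length filtering followed. Labels for polyreactivity reflect the gate of origin.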

Sequence | polyreactivity (PSR sort gate)
QVQLVESGGGLVQAGGSLRLSCAASGIIFYIYAMGWYRQAPGKERELVATISNDGGSTYYADSVKGRFTISRDNAKNTVYLQMNSLKPEDTAFFYCNADFADDKNYLFESELEYDYWGQGTQVTVSS | low polyreactivity
QVQLVESWGGLVQAGGSLRLSCAASGRTFHSYAMGWYRQAPGKERELVAAITSSGGSTYYADSVKGRFTISRDNAKNTVYLQMNSLKPEDTAVYYCAAPYRYLSRGGEMGYWGQGTQVTVSS | high polyreactivity
QVQLVESGGGLVQAGGSLRLSCAASGFIFRDNAMGWYRQAPGKERELVAAISERGGRTYYADSVKGRFTISRDNEKNTVYLQMISLKPEDTAVYYCAAEDIANFYYWGQGTQVTVSS | high polyreactivity
QVQLVESGGGLVQAGGSLRLSCAASGGTFAGNAMGWYRQAPGKERELVAAISKSGAITYYADSVKGRFTISRDNAKNTVYLQMNSLKPEDTAVYYCAARYLSGTSRYYYWGQGTQVTVSS | high polyreactivity
QVQLVESGVGLVQAGGSLRVSCAASGLTFAYYDMGWYRQAPGKERELVAAITWNGGSTYYADSVKGRFTISRDNAKNTVYLQMNSLKPEDTAVYYCAASWGYGYSGRFDYWGQGTQVSVSS | high polyreactivity
QVQLVESGGGLVQAGGSLRLSCAASGSIFTTYAMGWYRQAPGKERELVAVISRRGGSTYYADSVKGRFTISRDNAKNTVYLQMNSLKPEDTAVYYCNAAYVWYRIFVRRDYWGQGTQVTVSS | high polyreactivity
QVQLVESGGGLVQAGGSLRLSCAASGFTFAGNAMGWYRQAPGKERELVAGISRRGGNTYYADSVKGRFTISRDNAKNTVYLQMISLKPEDTAVYYCAARARRRYYYWGQGTQVTVSS | high polyreactivity
QVQLVDSGGGLVQAGGSLRLSCDASGSTFLYYAMGWYRQAPGKERELVARITSRFGRTYYADSVKGRFTISRDNAKNTVYLQMNSLKPEDTAVYYCAAYPDYSYYYWGHGTQVTVSS | high polyreactivity
QVQLVESGGGLVQAGGSLRLSCAASGFFFAGYAMGWYRQAPGKERELVAAISSGGGSTYYADSVKGRFTISRDNAKNTVYLQMNSLKPEDTAVYYCAARRLYPPGYYYWGQGTQVTVSS | high polyreactivity
QVHLVESGGGLVQAGGSLRLSCAASGSIFYWYAMGWYRQAPGKERELVAAITWSGGSTYYADSVKGRFTISRDNAKNTVDLQMNSLKPEDTAVYYCAALVYGYPRWSGKYDYWGQVTQVTVSS | high polyreactivity
QVQLVESGGGLVQAGGSLRLSCAASGIIFVYNAMGWYRPAPGKARELVAAINWRGDGTYYADSVKGRFTISRDNAKNTVYLQMNCLKPEDTAVYYCNAVRFRPNSHYRPVGYDYWGQGTQVTVSS | low polyreactivity
QVQLVESGGGLVQAGGSLRLRCAASGFIFVAYAMGWYIQAPGKERELVAAISWSGGSTYADSVKGRFTISRHNAKNTVYLQMNSLKPEDTAVYYCDARTSPIKTNNWYSQRYDSWGQGTQVTVSS | low polyreactivity
QVQLVESGGGLVQAGGSLRLSCAASGSTFPPNAMGWYRQAPGKERELVADSSDSSTYYADSVKGRFTISRDNAKNTVYLQMNSLKPEDTAVYYCAAADAGLRSKSYGQQYDYWGQGTQVTVSS | low polyreactivity
QVQLVESGGGLVQAGGSLRLSCAASGSTSYYYTMGWYRQAPGKERELVASISSSGTSTYYADSVKGRFTISRDNPKNTVYLQMNSLKPEDTAVYYCAATADNNTPSGYDYWGQGTQVTVSS | high polyreactivity
QVQLVESGGGLVQAGGSLRLSCAASGLIFATYAMGWYRQAPGKERELVAAISIRGGITYYADSVKGRFTISRDNAKNTVYLQMNSLKPEDTAVYYCAARYSRAGISHRMDYWGQGTQVTVSS | high polyreactivity
QVQLVESCGGLVQAGGSLRLSCAASGRTFGVYAMGWYRQAPGKERDLVAAINYSGGSTYYADSVKGRFTISRDNAKNTVYLQMNSLKPEDTAVYSCNKGPLISYAYRYYQPYDYWGQGTQVTVSS | low polyreactivity
QVQLVESGGGLVQAGGSLRLSCAASGSTFCINAMGWYRQAPGKERDLVAAISSRGGSTYYADSVKGRFTISRDNAKNTVYLQMNSLKPEDTAVYYCAAEFAVSFYWSWLGQDYNYWGQGTQVTVSS | high polyreactivity
QVQLVESGGGLVQAGGSLRLSCAASGRIFSINALGWYRQAPGKEREFVATISDRGSTTSYADSVKGRFTISRDNAKNTVYLQMNSLKPEDTAVYYCAARSYYRYDYWGQGTQVTVSS | high polyreactivity
QVQLVESGGGLVQAGGSLRLSCAASGRTFGSYAMGWYRQAPGKERELVAAITWSGTGTYYADSVKGRFTISRDNAKNTVYLQMNSLKPEDTAVYYCAVYTIGYLAWYQKFDYWGQGTQVTVSS | high polyreactivity
QVQLVESGGGLVQAGGSLRLSCAASGSIFWIYAMGWYRQAPGKERELVATITRRGGSTYYADSVKGRFTISRDNAKNTGYLQMNSLKPEDSAVYYCATEPGYTYLTSYKYDYWGQGTQVTVSS | low polyreactivity
QVNHVESGGGLVQAGGSLRLICAASGSTYNNAMGWYRQAPGKERELVAAIRWSGGSTYYADSVKGRFTISRDNANYTVYLQMNSLNPEDTAVYYCASAYRWSRKRYNDYDYWGQGSQVTVSS | high polyreactivity
QVQLVESGGGLVQAGGSLRLSCAASGSTFWRYAMGWYRQAPGKERELVAGITWNGGSTYYADSVKGRFTISRDNAKNTVYLQMNCLIPEDTAVYYCAARRSWGYIYRLGYGMDYWGQGTQVTVSS | high polyreactivity

Sequence | polyreactivity (PSR sort gate)
QVQLVESGAGLVQAGGSLRLSCAASGRIFHWYAMGWYRQAPGKERELVATANTSYADSVKGRFTISRDNAKNTVYLQMNSLKPEDTAVYYCATVGPRGRSLGDYWGQVTQVTVSS | low polyreactivity
QVQLVESGGRLVQAGGSLRLSCAASGRTFSAYAMGWYRPAPGKERELVARITSVDSTNYADSVKGRFTISRDNAKNTVYLQMNSPKPEDTAVYYCNATFGYPFVDYDDYWGQGTQVTVSS | low polyreactivity
QVQLEESGGGLVQAGGSLRLSCAASGRTLDYYAMGWYRQAPGKERELVASITSGGSTNYADSVKGRFTISRDNAKNTVYLQMNSLKPEDTAVYYCAADSAFYRDVKSNYWGQGTQVTVSS | low polyreactivity
QVQLVESGGGLVQAGGSLRLSCAASGSIFSVNAMGWYRQAPGKERELVATIRWSGSSTYYADSVKGRFTISRDNAKNSVYLQMKSLKPEDTAVYYCAADSTEIPWCGMDYWGQGTQVTLSS | low polyreactivity
QVQLVESVGGLVQAGGSLRLSCAASGRIFLVYVMGWYRQAPGKERELVAAISASDGSTYYADSVKGRFTISRDNAKNTVYLQMNSLKPEDTAVYYCAEWGYSLDSNSYRELNYWGQGTQVTVSS | low polyreactivity
QVQLVESGGGLVQAGGSLRLSCAASGSIFKKYAMGWYRQAPGKERELVAAISSGGGSTYYADSVKGRFTISRDNAKNTVYLQMNSLKPEDTAVYYCNARIQYFKYRGYEYWGQGTQVTVSS | high polyreactivity
QVQLVESGGGLVQAGGSLRLSCAASGSTFRWNTMGWYIQAPGKERELVAAISYSGGITYYADSVKGRFTISRDNAKNTVYLQMNSLKPEDTAVYYCYATRVRGWYVTRYYYWGQGSQVTVSS | high polyreactivity
QVQLVESGGGLVQAGGSLRLSCAASGSIFSNNAMGWYRPAPGKERELVAAITRSGGNTYYADSVKGRFTISRDNAKNTVYLQMNSLKPEDTAVYYCAASNSHVGPNDYWGQGTQVTVSS | high polyreactivity
QVQLVESGGGLVQAGGSLRLSCAASGSIFVGNAMGLYRQAPGKERELVAAISSSGGRTFYADSVKGRFTISRDIAKNSVYLQMNSLKPEDTAVYYCAAYLWSYVFNLYEYWGQGTQVTVSS | high polyreactivity
QVQLVESGGGLVQAGGSLRLSCAASGRTFVYNAMGWYSQAPGKEREMVAAISFGGGNTYYADSVKGRFTISRDNAKNTVYLQMNSLIPEDTAVYYCAKAYIGYWGASWYYAYDYWGQGTQVTVSS | low polyreactivity
QVQLVESGGGLVQAGGSLRLSCAASGRTFRVYAMGWYRQAPGKERELVAAIRSGGSTNYADSVKGRFTISRDNAKNTVYLQMNSLKPEDTAVYYCAAVYRNNRQGYQFDYWGQGTQVTVSS | high polyreactivity
QVQLVESGGGLVQAGGSLRLSCAASGSTLSSYAMGWYRPAPGTERELGAVISGGGRTYYADSVKGRFTISRDNAKNTVYLQMNSLKPEDTAVYYCAAVTFSLGYRYYYWGQGTQVTVSS | high polyreactivity
QVQLVESGGGLVQAGGSLRLSFAASGRIFKRNTKRWYRQAPGKETELVAAITYSGITYYADSVKGRFTISRDNAKNTFYLQMNSLKPEDTAVYYCDKVLYPIGSPRFEYWGQGTQVTVSS | low polyreactivity
QDQLVDSGGGLVQAGASLRISSATSGRILWEYAMGSYRQAPGKERQLVAAITISDGSTYYADSVKGRFTISRDNAKNTVYLQMNSLNPEDTEVYYCAADSYDYTPAYLFSYKYYYWGQGTQVTVSS | low polyreactivity
QVQLVESGGGLVQAGGSLRLSCAASGFIFDAYAMGWYRQAPGKERELVAAITRGNTYYADSVTGRFTISRDNAKNTVYLQMNSLKPEDTAVYYCAARYWQSYRSQVTHSSTLDYWGQGTQVTVSS | low polyreactivity
QVQLVESGGGLVQAGGSLRLSCAASGSTFTYNAMGWYRPAPGKERELVAAISYGGGRTYYADSVKGRFTISRDNAKNTVYLQMNSLKPEDTAVYYCAAGRSIGALYYGMDYWGQGTQVTVSS | high polyreactivity
QVQLVESGGGLVQAGGSLRLSCAASGSIFKLYAMGWYRQAPGKERELVASISVSGGSTYYADSVKGRFTISRDNAKNTVYLQMNSLKPEDTAVYYCAAEKRSSIVGSGGNYWGQGTQVTVSS | low polyreactivity
QVQLVESGGGLVQAGGSLRLSCAASGSIFHYNAMGWYRQAPGKERELVARISVNGGRTYYADSVKGRFTISRDNAKNTDYLQMNSLKPEDTAVYYCAVEGVWRSFFYGYDSWGQGTQVTVSS | low polyreactivity
QVQLVESGGGLVQAGGSLRLSCAASGRIFVYYVMGWYRQAPGKERELVAAITYSGGSTYYADSVKGRFTISRDNAKNTVYLQMNRLKTEDTAVYYCNKVDAFGIVRLYYWGQGTQVTVSS | low polyreactivity
QVKLLDSGGGLVQAGGSLRLSCSASGFTFNNYAMVWYRQAPGKERELVAAISWAGGSTYYADSVKGRFTISRDNAKNTVYLQMNTLKPEDTAVYYCAKRIRYTTRPTYGFYYWGQGTQVTVSS | high polyreactivity
QVQLVESGGLLVQAGGSLRLTCAASGSTFGRNAMGWYRQATGKERQLVAAITASGGTTYYADSVKGRFTISRDNAKNTVYLHMNSLKPEDTAVYDCARAGHFSFKYDYWGQGTQVTVSS | low polyreactivity
